Results published in article PMC3260166, “HspB2/Myotonic Dystrophy Protein Kinase Binding Protein (MKBP) as a Novel Molecular Chaperone: Structural and Functional Aspects” (PLoS ONE, 2012).

Key:
[1] = biological target: the molecule itself; assay: AUC; sedimentation velocity, 0.125, 1 and 3 mg/ml HspB2 in TNE buffer (50 mM Tris HCl pH 7.4, 1 mM EDTA, 100 mM NaCl), 40,000 rpm, 20°C, interference optics, SEDFIT
[2] = biological target: the molecule itself; assay: FRET or BRET; subunit exchange: AIAS- and LYI-labelled HspB2 mixed in equimolar ratios in 20 mM HEPES pH 7.4, 100 mM NaCl, at 37°C or 20°C; excitation 332 nm

Row | Protein | binding result [1] | binding result [2]
1 | human HspB2 / Myotonic Dystrophy Protein Kinase Binding Protein (MKBP) (natural protein, UniProt Q16082 1-182, looked up, HspB2 (MKBP), human; The reverse primer carries the stop codon (TCA), so the C-terminal His tag of pET21a is probably not translated; also called MKBP/HspB2; source: E. coli BL21 DE3, purified (20% ammonium sulfate precipitation, Phenyl Sepharose)) MSGRSVPHAHPATAEYEFANPSRLGEQRFGEGLLPEEILTPTLYHGYYVRPRAAPAGEGSRAGASELRLSEGKFQAFLDVSHFTPDEVTVRTVDNLLEVSARHPQRLDRHGFVSREFCRTYVLPADVDPWRVRAALSHDGILNLEAPRGGRHLDTEVNEVYISLLPAPPDPEEEEEAAIVEP | binds | –
2 | human HspB2 labelled at its sole cysteine (Cys118) with AIAS or LYI (natural protein, UniProt Q16082 1-182, looked up, cysteine at 118 covalently labelled with AIAS (4-acetamido-4'-((iodoacetyl)amino)stilbene-2,2'-disulfonic acid; donor copy) or with Lucifer Yellow Iodoacetamide (LYI; acceptor copy), HspB2 (MKBP), human; the same recombinant protein as m1, labelled at the sole cysteine residue (118th position); Two differently labelled copies of the same protein (AIAS donor, LYI acceptor) mixed in equimolar ratio for FRET; also called AIAS-labeled HspB2; LYI-labeled HspB2; source: E. coli BL21 DE3, purified, then labelled with AIAS or LYI and desalted (PD10)) MSGRSVPHAHPATAEYEFANPSRLGEQRFGEGLLPEEILTPTLYHGYYVRPRAAPAGEGSRAGASELRLSEGKFQAFLDVSHFTPDEVTVRTVDNLLEVSARHPQRLDRHGFVSREFCRTYVLPADVDPWRVRAALSHDGILNLEAPRGGRHLDTEVNEVYISLLPAPPDPEEEEEAAIVEP | – | binds
